Values of other authors, collected in article PMC7556843.

What was measured:
[1] = target: linear diubiquitin (Ub2) (Homo sapiens) (UniProt P0CG47)
[2] = target: linear tetraubiquitin (Ub4) (Homo sapiens) (UniProt P0CG47)

Chain of NEMO 242-419 (Q9Y6K9 242-419): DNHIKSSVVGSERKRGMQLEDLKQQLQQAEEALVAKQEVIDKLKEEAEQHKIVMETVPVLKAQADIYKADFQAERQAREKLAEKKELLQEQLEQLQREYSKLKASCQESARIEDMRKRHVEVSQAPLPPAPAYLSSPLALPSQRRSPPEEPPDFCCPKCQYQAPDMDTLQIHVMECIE

Kd [1]: 3000 nM
Kd [2]: 300 nM
Substance: NEMO 242-419 (from UniProt Q9Y6K9)
